Three molecules from paper PMC13170487 (Journal of molecular biology, 2025) can be followed below.

Assay [1] has as its target CFTR-associated ligand (CAL) PDZ domain (UniProt Q9HD26-2 276-362). Description: fluorescence polarisation. For orientation: Fluorescence polarisation rises when a labelled molecule tumbles more slowly, as on binding a larger partner.
The target of assay [2] is T1, Tax-interacting protein 1 (TIP-1), His10 tag cleaved (UniProt O14907 1-124).
T1 sequence (looked up): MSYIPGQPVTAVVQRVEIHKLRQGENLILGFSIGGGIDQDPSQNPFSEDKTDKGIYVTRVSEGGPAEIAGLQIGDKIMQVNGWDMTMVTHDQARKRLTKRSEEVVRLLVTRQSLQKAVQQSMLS
Description: fluorescence polarisation.

For orientation: Ki means the equilibrium dissociation constant of an inhibitor or competing ligand from its target. A low value points to a stronger hold on the target.

Consider WRFKKANSRWPTSII [BT-iCAL36], for which the Ki in assay [1] came out at 3.1 µM; in assay [2], 2.4 µM.

With ANSRLPTSII [L-iCAL36], the Ki in assay [2] was more than 1000 µM.

In turn, ANSRYPTSII [Y-iCAL36] showed an inhibition constant (Ki) in assay [2] of 390 µM.
